Measurements from paper PMC6687201, “Atg11 tethers Atg9 vesicles to initiate selective autophagy” (PLoS Biology, 2019).

Columns and labels:
[1] = biological target: the molecule itself; experiment: AUC; sedimentation velocity of purified Atg11-His6, analysed with SEDFIT; also at 1.63 mg/ml and 0.15 mg/ml
[2] = biological target: T1, Atg9^core reconstituted in proteoliposomes (yeast, UniProt Q12142 281-779); experiment: co-floatation with proteoliposomes; Atg9-PLs mixed with one interaction partner in a Nycodenz step gradient, ultracentrifugation, floated fraction on SDS-PAGE; SUVs lacking Atg9^core as control; settings: both partners purified
T1 construct: Atg9 core, yeast; Liposomes: 20 mol% cholesterol, 10 mol% POPE, 60 mol% POPC, 10 mol% POPS; protein:lipid 1:200; also called Atg9-PLs; Atg9 vesicles; source: reconstituted in liposomes by rapid dilution
T1 sequence (looked up): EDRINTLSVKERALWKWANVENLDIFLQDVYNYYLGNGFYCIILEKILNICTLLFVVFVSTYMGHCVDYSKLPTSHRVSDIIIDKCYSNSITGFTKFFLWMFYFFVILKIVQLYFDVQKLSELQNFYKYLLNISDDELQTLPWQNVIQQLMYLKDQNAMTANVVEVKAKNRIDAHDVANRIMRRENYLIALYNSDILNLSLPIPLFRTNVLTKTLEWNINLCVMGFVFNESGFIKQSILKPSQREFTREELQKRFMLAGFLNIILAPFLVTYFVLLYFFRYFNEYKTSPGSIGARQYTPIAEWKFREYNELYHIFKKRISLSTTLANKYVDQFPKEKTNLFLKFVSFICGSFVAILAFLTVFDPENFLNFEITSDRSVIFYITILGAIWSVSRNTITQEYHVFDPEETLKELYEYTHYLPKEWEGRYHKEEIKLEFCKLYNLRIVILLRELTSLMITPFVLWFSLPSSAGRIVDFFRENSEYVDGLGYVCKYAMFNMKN

B1: recombinant purified Atg11 (Atg11-His6) (natural protein, yeast)
chain: GPMADADEYSTAPTQQEITPLQTTATIINAISGECITTNVDFFVSLDKFKQFIARKWKIPPDQLLILLPYGNKLKPSMFKELLINRSFTLNDFYVYDRRLFSLVSKPTPTNLLTSKDSNPMNSPNSNDLTETLEYLIKNSHISQYQGSDTIMIKPMPSPLEDADVDLSRLNYHSVTSLLTTNLGWLSALEIDVHYFKSLIPDIIAHIKRIFDGLTVCSQYLKLYCFDVESLYNSNVQFLNQLVDNGMTSKWEKCFNDTLSKLTALEGDSLQKFINIESLLENEKSVKILNHSINGKLNKIKREIDENASFRDIITVNIDRLRQMFTPNESKFELEDQMAESFEVLVSEMRTRSRNVLDKEEEEFNSQEFLKSMNVMLEKDKKESVKTLFTISQALYSQIGELIDLKKSLQKHAVAILGNIAFTQMEILGIKRLLLNECNKDLELYKKYEVEFAQVEDLPLIYGLYLIEKYRRLSWFQQILSFISNFNQDLELFKQNELRTRNKWVKNFGSIATVFCEDLLSSSDFKRLNEYHSHTSPPNEDEEDENENSIANYRQDLVKVSQAIDNYMTQIKETDVSEPIIDLLSKTLFETKRFHIIYSNFKNNNNNSSNGNSISPEGSIALKSDDVVKGYKTRIKKLESLLHEFQYSDIGHWPQGVLNTHLKPFRGSATSINKKKFLGASVLLEPANISEVNIDSVSQANNHQIQELESNVDDLLHQLQLLKEENNRKSMQISEMGKKISDLEVEKTAYRETLTNLNQELARLTNEEQSHRTEIFTLNASFKKQLNDIISQDNEKIEKLTGDYDDVSKSRERLQMDLDESNKKHEQEVNLLKADIERLGKQIVTSEKSYAETNSSSMEKGEKFETIPLAEDPGRENQISAYTQTLQDRIFDIISTNIFILENIGLLLTFDNNNNIQIRRVKGLKKGTAQSNILDESTQMLDAHDNSLIKSPVFQKLKDEYELIKSVANGSEKDTQQSIFLGNITQLYDNKLYEVAVIRRFKDIETLAKKLTKENKIKRTLLERFQREKVTLRNFQIGDLALFLPTRENVNSVGSMSSSTSSLSSSFSSVDLSTPPPLDAMSIQSSPSVIHSNVINQASISGRDKNKLMRPWAAFTAFEESTRYFLKDEKGLTKGKEWFVGRIVTLEHFVADSPSNNPFRLPKGSVWFQVTAVVVSYQGV
modifications: Atto565 label in the GUV experiments
notes: N-terminal residual glycine-proline from PreScission protease digestion; Atg11, yeast; expressed from pCoofy37-Atg11; measured molecular weight 136 kDa; also called His-tagged Atg11; Atg11^Atto565; source: E. coli BL21 (DE3), coexpressed with chaperones from pG-KJE8, purified (Ni-NTA, PreScission digestion, gel filtration); not shown: His6, C-terminal, kept
[1]
  stoichiometry N: 2
[2]
  stoichiometry N: 1
